Where a chain is given by its changes, count along the chain named.
T1: B7-H3 on CHO-K1 cells stably transfected with B7-H3 (GenScript #M00536) (UniProt Q5ZPR3 29-534, limits assumed)
T1 sequence (looked up): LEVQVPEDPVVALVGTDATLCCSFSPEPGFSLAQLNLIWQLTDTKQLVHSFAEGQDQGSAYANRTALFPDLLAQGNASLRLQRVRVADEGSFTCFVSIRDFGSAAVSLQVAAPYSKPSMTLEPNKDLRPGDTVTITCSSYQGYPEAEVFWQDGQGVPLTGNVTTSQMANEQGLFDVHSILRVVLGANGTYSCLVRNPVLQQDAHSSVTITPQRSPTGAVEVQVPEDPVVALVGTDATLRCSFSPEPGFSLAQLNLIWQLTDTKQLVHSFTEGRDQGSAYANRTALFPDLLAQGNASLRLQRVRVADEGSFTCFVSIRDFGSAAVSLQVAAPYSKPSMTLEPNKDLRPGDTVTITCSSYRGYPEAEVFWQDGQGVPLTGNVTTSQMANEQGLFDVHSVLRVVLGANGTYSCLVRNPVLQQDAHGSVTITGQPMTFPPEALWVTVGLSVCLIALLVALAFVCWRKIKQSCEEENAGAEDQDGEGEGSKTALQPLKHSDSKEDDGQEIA

B1: 40511p1.1.A1 IgG (antibody, V domains shown)
VH: DVQLVESGGGVVRPGESLRLSCAASGFTFSNYAMNWVRQAPGEGLEWVSRINYKGYNITYYADSVKGRFTISRDNSKNTLYLQMNSLRAEDTAVYYCAKSGSNSNNFFDYWGLGTLVTVSS
VL: EIVLTQSPGTLSVSPGERATLSCRASQSVNSKLAWYQQRPGQAPRLLIYDASSRATGIPDRFSGSGSGTDFTLTISRLEPEDFAVYYCQQYKNWPPLTFGGGTKVEIK
B2: 40511p1.2.A12 IgG (antibody, V domains shown)
VH: DVQLVESGGGVVRPGESLRLSCAASGFTFSSYAESWVRQAPGEGLEWVSIISGSGGNTFYADSVKGRFTISRDNSKNTLYLQMNSLRAEDTAVYYCARFAYGFFDYWGLGTLVTVSS
VL: B1 VL with S28T, N30G, R39K, A43P, R45S, S53T, R77S, E79Q, P80S, K92R
B3: 40511p1.2.G10 IgG (antibody, V domains shown)
VH: B1 VH
VL: EIVLTQSPGTLSLSPGERATLSCRASQTVGSKLAWYQQKPGQAPRLLIYGASTRATDIPDRFSGSGSGTEFTLTISSLQSEDFAVYYCQQYINWPPLSFGGGTKVEIK
B4: 40511p1.1.H5 IgG (antibody, V domains shown)
VH: B1 VH
VL: EIVLTQSPGTLSLSPGERATLSCRASQSIRSDLAWYQQKPGQAPRLLIYGAASRATGIPARFSGSGSGTEFTLTISSLQSGDFAVYYCQQYNSWPPLTFGGGTKVEIK
B5: 40511p1.2.A4 IgG (antibody, V domains shown)
VH: B2 VH
VL: B3 VL with L13V, G50D, E70D, I92R, S98T
B6: 40633p1.1.A7 IgG (antibody, V domains shown)
VH: EVQLLESGGGLVQPGGSLRLSCAASGFTVSYYGMSWVRQAPGKGLEWVSAIKQDGSEKYYADSVKGRFTISRDNSKNTLYLQMNSLRAEDTAVYYCARHWNDYSNAMNVWGQGTTVTVSS
VL: QSVLTQPPSASGTPGQRVTISCSGSTSNIGRESVYWYQQLPGTAPKLLIYTIDQRPSGVPDRFSGSKSGTSASLAISGLQSEDEAVYYCASWDASLNGWVFGGGTKLTVL
B7: 40633p1.2.A10 IgG (antibody, V domains shown)
VH: B6 VH with A50V, K58E, A106G
VL: B6 VL with I29V, R31D, E32R, S33Y, T51L, I52D, V86D
B8: 40633p1.1.G11 IgG (antibody, V domains shown)
VH: B6 VH with A50V, K58E, L86P, A106G
VL: B6 VL with I29V, R31D, E32R, S33Y, T51L, I52D, V86D
B9: 40633p1.1.B3 IgG (antibody, V domains shown)
VH: B6 VH
VL: B6 VL with V86D, A90G, S91T, A94D, G98A
B10: 40633p1.1.E3 IgG (antibody, V domains shown)
VH: B6 VH
VL: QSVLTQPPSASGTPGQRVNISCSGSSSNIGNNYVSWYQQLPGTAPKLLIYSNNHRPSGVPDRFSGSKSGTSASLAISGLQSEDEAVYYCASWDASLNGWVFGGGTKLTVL
B11: 40633p1.1.G5 IgG (antibody, V domains shown)
VH: B6 VH with T28I, S30N, A40P, N77T, A106G
VL: QSVLTQPPSASGTPGQRVTISCSGSWSNIGSYNSHWYQKLPGTAPKLLIYTTDRRPSGVPDRFSGSKSGTSASLAISGLQSEDEADYYCGTWDDSLNVWVFGGGTKLTVL
B12: 40633p1.1.G7 IgG (antibody, V domains shown)
VH: EVQLLESGGGLVQPGGSLRLSCAASGFTFSGSAMNWVRQAPGKGLEWVSAINSGGTTIYYADSVKGRFTVSRDNSKNTLYLQMNSLRAEDTAVYYCVKLDFYYGMDVWGEGTTVTVSS
VL: QSVVTQPPSASGTPGQRVTVSCSGSSSNVGSKYVQWYQQLPGTAPKLLIYATDRRPSGVPDRFSGSKSGTSASLAISGLQSEDEADYYCASWDDSLNAWVFGGGTKLTVL
B13: 40633p1.1.F2 IgG (antibody, V domains shown)
VH: EVQLLESGGGLVQPGGSLRLSCVASGLTFNGFAMTWVRQAPGKGLEWVSGISWNSGSIYYADSVKGRFTISRDNSKNTVYLQMSSLRAEDTAIYYCAKNWNDYYNSMDVWGQGTTVTVSS
VL: QSVLTQPPSASGTPGQRVTISCSGSRSNIGTKYVYWYQQFPGTAPKLLIYTTDRRPSGVPDRFSGSKSGTSASLAISGLQSEDEADYYCSAWDDRLNAWVFGGGTKLTVL
B14: 40633p1.1.H11 IgG (antibody, V domains shown)
VH: EVQLLESGGGLVQPGGSLRLSCAASGFTFSSYPMTWVRQAPGKGLEWVADINSGGGTTLYADAVKGRFTISRDNSKNIVYLQMNSLRGEDTAVYYCAKHLDYYSYGMDVWGQGTTVTVSS
VL: QSVLTQPPSASGTPGQRVTISCSGVTSKIGSKYVHWYQQLPGTAPKLLIYRNFERPSGVPDRFSGSTSGTSASLAISGLQSEDEADYYCATWEGALNGWVFGGGTKLTVL
B15: 40633p1.1.C11 IgG (antibody, V domains shown)
VH: EVQLLESGGGLVQPGGSLRLSCAASGFTFSSYWMSWVRQAPGKGLEWVAGINRNGGTTYYADSVKGRFTISRDNSKNTLYLQMNSLRAEDTAVYYCARWNDYDIMDVWGQGTTVTVSS
VL: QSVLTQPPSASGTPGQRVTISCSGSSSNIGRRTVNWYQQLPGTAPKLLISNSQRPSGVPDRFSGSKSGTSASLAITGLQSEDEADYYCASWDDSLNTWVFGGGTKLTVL
B16: 40633p1.1.E4 IgG (antibody, V domains shown)
VH: B15 VH with A49S, N52S, R53S, N54S, G56S, T57A
VL: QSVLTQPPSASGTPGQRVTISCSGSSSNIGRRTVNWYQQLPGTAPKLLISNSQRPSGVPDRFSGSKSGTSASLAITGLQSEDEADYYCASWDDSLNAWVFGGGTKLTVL
B17: 40579p1.C2 IgG (antibody, V domains shown)
VH: EVQLLESGGDLVQPGGSLRLSCAASGFNFSSYWMSWVRQAPGKGLEWVSGISISYGGNAYYADSVKGRFTVSRDNSKNTLYLQMNSLRAEDTAVYYCGRDRSPYQYRSMDVWGQGTTVTVSS
VL: B3 VL with G9A, L13V, L21F, V29I, S31N, Y49F, G50S, E70D, I92N, S98T
B18: 40579p1.D8 IgG (antibody, V domains shown)
VH: B17 VH with D10G, N28T, S31D, W33Y, G50S, N58T, A59T, V71I, G98A, Y106C
VL: B4 VL with G50N, A51T, A52V, S53T, I58V, A60D, G81E
B19: 40579p1.F7 IgG (antibody, V domains shown)
VH: B17 VH with D10G, N28T, S31D, W33Y
VL: EIVLTQSPGTLSLSPGERATLTCRASQSVGDFLAWYQQKPGQAPRLLIYGASTRAAGIPARFRGSGSGTDFTLTISSLQSEDFAVYYCQQYKNWPPLTFGGGTKVEIK
B20: 40579p1.G1 IgG (antibody, V domains shown)
VH: B17 VH with D10G
VL: B4 VL with A52S, G81E, S93N
B21: 40579p1.H7 IgG (antibody, V domains shown)
VH: B17 VH
VL: B4 VL with A52S, G81E, S93N
B22: 40579p1.D1 IgG (antibody, V domains shown)
VH: B17 VH with D10G, N28T, S31D, W33Y, G50S, N58T, A59T, V71I, G98A, Y106C
VL: B4 VL with T10S, I29V, R30N, G50A, A52S, G81E, S93N
B23: 40633p1.1.D11 IgG (antibody, V domains shown)
VH: EVQLLESGGGLVQPGGSLRLSCAASGFTFRSYAMSWVRQAPGKGLEWVAYIGSSGGTTYYADSVKGRFTISRDNSKNTLYLQMNSLRAEDTAVYYCVKESYYYMDVWGQGTTVTVSS
VL: QSVLTQPPSASGTPGQRVTISCSATISNIDINRVSWYQQLPGTAPKLLIFNSQRPSGVPDRFSGSKSGTSASLAISGLQSEDEADYYCATWDDSLNSWVFGGGTKLTVL

What follows are binders tested against T1, B7-H3 on CHO-K1 cells stably … (assay: cell-based or functional assay).

ADCC reporter assay, EC50 Value, CHOK1/B7-H3 cells [µg/mL]	ADCC reporter assay, Max RLU, CHOK1/B7-H3 cells [RLU]	Binder
0.0124	820000	B1
0.0352	598000	B2
~0.0103	893000	B3
0.0164	762000	B4
0.0318	548000	B5
~0.0125	634000	B6
0.0471	762000	B7
0.0344	725000	B8
0.0227	680000	B9
0.135	625000	B10
0.18	452000	B11
0.0419	656000	B12
0.0214	519000	B13
0.0412	798000	B14
0.0173	719000	B15
0.0194	676000	B16
0.0116	843000	B17
0.075	728000	B18
0.0124	641000	B19
0.0115	806000	B20
0.0126	833000	B21
0.274	744000	B22
0.0119	656000	B23
